Measurements from the Human Domainome abundance scans (Beltran et al. 2025).
± gives the uncertainty stated by the source.

B1: Cyclin-F, residues 28 to 80; numbered along this chain, P41002 (parent)
chain: RNLTILSLPEDVLFHILKWLSVEDILAVRAVHSQLKDLVDNHASVWACASFQE

Variants of: B1
Test: abundance fitness (aPCA) (normalised: wild type 0, dead -1); higher = more abundant; growth selection in yeast, the domain comes from the species named
Details: Homo sapiens
Work on RNLTILSLPEQVLFHILKWLSVEDILAVRAVHSQLKDLVDNHASVWACASFQE yielded an abundance fitness of -0.049 ± 0.13.
For RNLTILSLPERVLFHILKWLSVEDILAVRAVHSQLKDLVDNHASVWACASFQE, the abundance fitness was -0.099 ± 0.08.
RNLTILSLPESVLFHILKWLSVEDILAVRAVHSQLKDLVDNHASVWACASFQE showed an abundance fitness of 0.093 ± 0.087.
RNLTILSLPEVVLFHILKWLSVEDILAVRAVHSQLKDLVDNHASVWACASFQE showed an abundance fitness of -0.269 ± 0.1.
RNLTILSLPEWVLFHILKWLSVEDILAVRAVHSQLKDLVDNHASVWACASFQE gave an abundance fitness of -0.731 ± 0.14.
For RNLTILSLPEYVLFHILKWLSVEDILAVRAVHSQLKDLVDNHASVWACASFQE, the abundance fitness was -0.556 ± 0.22.
RNLTILSLPEDALFHILKWLSVEDILAVRAVHSQLKDLVDNHASVWACASFQE showed an abundance fitness of -0.816 ± 0.16.
RNLTILSLPEDCLFHILKWLSVEDILAVRAVHSQLKDLVDNHASVWACASFQE gave an abundance fitness of -0.343 ± 0.28.
With RNLTILSLPEDDLFHILKWLSVEDILAVRAVHSQLKDLVDNHASVWACASFQE the abundance fitness was -0.816 ± 0.21.
For RNLTILSLPEDFLFHILKWLSVEDILAVRAVHSQLKDLVDNHASVWACASFQE, the abundance fitness was -1.02 ± 0.22.
Work on RNLTILSLPEDGLFHILKWLSVEDILAVRAVHSQLKDLVDNHASVWACASFQE yielded an abundance fitness of -0.764 ± 0.15.
Work on RNLTILSLPEDHLFHILKWLSVEDILAVRAVHSQLKDLVDNHASVWACASFQE yielded an abundance fitness of -0.732 ± 0.28.
For RNLTILSLPEDILFHILKWLSVEDILAVRAVHSQLKDLVDNHASVWACASFQE, the abundance fitness was 0.033 ± 0.093.
With RNLTILSLPEDKLFHILKWLSVEDILAVRAVHSQLKDLVDNHASVWACASFQE the abundance fitness was -1.07 ± 0.29.
Variant RNLTILSLPEDLLFHILKWLSVEDILAVRAVHSQLKDLVDNHASVWACASFQE has an abundance fitness of -0.281 ± 0.096.
In the case of RNLTILSLPEDMLFHILKWLSVEDILAVRAVHSQLKDLVDNHASVWACASFQE, the abundance fitness is reported as -0.924 ± 0.17.
Variant RNLTILSLPEDNLFHILKWLSVEDILAVRAVHSQLKDLVDNHASVWACASFQE has an abundance fitness of -1.02 ± 0.44.
RNLTILSLPEDPLFHILKWLSVEDILAVRAVHSQLKDLVDNHASVWACASFQE gave an abundance fitness of -0.733 ± 0.13.
For RNLTILSLPEDQLFHILKWLSVEDILAVRAVHSQLKDLVDNHASVWACASFQE, the abundance fitness was -0.747 ± 0.15.
Work on RNLTILSLPEDRLFHILKWLSVEDILAVRAVHSQLKDLVDNHASVWACASFQE yielded an abundance fitness of -0.909 ± 0.13.
With RNLTILSLPEDSLFHILKWLSVEDILAVRAVHSQLKDLVDNHASVWACASFQE the abundance fitness was -0.85 ± 0.15.
For RNLTILSLPEDTLFHILKWLSVEDILAVRAVHSQLKDLVDNHASVWACASFQE, the abundance fitness was -0.493 ± 0.13.
With RNLTILSLPEDWLFHILKWLSVEDILAVRAVHSQLKDLVDNHASVWACASFQE the abundance fitness was -0.851 ± 0.16.
RNLTILSLPEDYLFHILKWLSVEDILAVRAVHSQLKDLVDNHASVWACASFQE showed an abundance fitness of -0.846 ± 0.21.
For RNLTILSLPEDVCFHILKWLSVEDILAVRAVHSQLKDLVDNHASVWACASFQE, the abundance fitness was -0.933 ± 0.35.
For RNLTILSLPEDVDFHILKWLSVEDILAVRAVHSQLKDLVDNHASVWACASFQE, the abundance fitness was -0.644 ± 0.44.
Variant RNLTILSLPEDVEFHILKWLSVEDILAVRAVHSQLKDLVDNHASVWACASFQE has an abundance fitness of -0.81 ± 0.32.
RNLTILSLPEDVFFHILKWLSVEDILAVRAVHSQLKDLVDNHASVWACASFQE showed an abundance fitness of 0.091 ± 0.28.
In the case of RNLTILSLPEDVGFHILKWLSVEDILAVRAVHSQLKDLVDNHASVWACASFQE, the abundance fitness is reported as -0.692 ± 0.14.
Work on RNLTILSLPEDVKFHILKWLSVEDILAVRAVHSQLKDLVDNHASVWACASFQE yielded an abundance fitness of -0.431 ± 0.23.
With RNLTILSLPEDVMFHILKWLSVEDILAVRAVHSQLKDLVDNHASVWACASFQE the abundance fitness was -0.138 ± 0.14.
With RNLTILSLPEDVQFHILKWLSVEDILAVRAVHSQLKDLVDNHASVWACASFQE the abundance fitness was -0.093 ± 0.19.
Variant RNLTILSLPEDVRFHILKWLSVEDILAVRAVHSQLKDLVDNHASVWACASFQE has an abundance fitness of -0.633 ± 0.26.
RNLTILSLPEDVSFHILKWLSVEDILAVRAVHSQLKDLVDNHASVWACASFQE gave an abundance fitness of -0.67 ± 0.2.
RNLTILSLPEDVTFHILKWLSVEDILAVRAVHSQLKDLVDNHASVWACASFQE showed an abundance fitness of -0.001 ± 0.17.
In the case of RNLTILSLPEDVVFHILKWLSVEDILAVRAVHSQLKDLVDNHASVWACASFQE, the abundance fitness is reported as -0.141 ± 0.14.
With RNLTILSLPEDVWFHILKWLSVEDILAVRAVHSQLKDLVDNHASVWACASFQE the abundance fitness was -0.204 ± 0.21.
In the case of RNLTILSLPEDVYFHILKWLSVEDILAVRAVHSQLKDLVDNHASVWACASFQE, the abundance fitness is reported as -0.306 ± 0.37.
For RNLTILSLPEDVLAHILKWLSVEDILAVRAVHSQLKDLVDNHASVWACASFQE, the abundance fitness was 0.132 ± 0.085.
RNLTILSLPEDVLCHILKWLSVEDILAVRAVHSQLKDLVDNHASVWACASFQE gave an abundance fitness of -0.162 ± 0.095.
With RNLTILSLPEDVLDHILKWLSVEDILAVRAVHSQLKDLVDNHASVWACASFQE the abundance fitness was -0.762 ± 0.14.
RNLTILSLPEDVLEHILKWLSVEDILAVRAVHSQLKDLVDNHASVWACASFQE showed an abundance fitness of -0.074 ± 0.13.
RNLTILSLPEDVLGHILKWLSVEDILAVRAVHSQLKDLVDNHASVWACASFQE gave an abundance fitness of -0.293 ± 0.082.
In the case of RNLTILSLPEDVLHHILKWLSVEDILAVRAVHSQLKDLVDNHASVWACASFQE, the abundance fitness is reported as -0.324 ± 0.14.
For RNLTILSLPEDVLKHILKWLSVEDILAVRAVHSQLKDLVDNHASVWACASFQE, the abundance fitness was 0.226 ± 0.093.
RNLTILSLPEDVLLHILKWLSVEDILAVRAVHSQLKDLVDNHASVWACASFQE showed an abundance fitness of 0.179 ± 0.074.
For RNLTILSLPEDVLMHILKWLSVEDILAVRAVHSQLKDLVDNHASVWACASFQE, the abundance fitness was 0.181 ± 0.083.
Variant RNLTILSLPEDVLPHILKWLSVEDILAVRAVHSQLKDLVDNHASVWACASFQE has an abundance fitness of -0.954 ± 0.2.
For RNLTILSLPEDVLQHILKWLSVEDILAVRAVHSQLKDLVDNHASVWACASFQE, the abundance fitness was -0.08 ± 0.1.
With RNLTILSLPEDVLRHILKWLSVEDILAVRAVHSQLKDLVDNHASVWACASFQE the abundance fitness was 0.056 ± 0.069.
